No end group written: not given here.
Each binder was assayed against Recombinant DPP-IV (assay: cell-based or functional assay).
Work on YAEGTFISDYSIAMDKIHQQDFVNWLLAQKPSSGAPPPS (modifications not checked) [N-(γ-L-Glu-(2-(S)-cyano pyrrolidyl)-Ado-Ado) GIP(1-30)-exendin-4(31-39)] yielded a DPP-IV IC50 of 110 nM. YAEGTFISDYSIAMDKIHQQDFVNWLLAQKPSSGAPPPS (modifications not checked) [[D-Ala^2] GIP(1-30)-exendin-4(31-39)-Ado-Lys-N-ε-(2-(S)-cyano pyrrolidyl)] gave a DPP-IV IC50 of 85 nM. YAEGTFISDYSIALDKIHQQDFVNWLLAQKPSSGAPPPS-{Ado-Lys(N-ε-(2-(S)-cyano pyrrolidyl))} [[Leu^14] GIP(1-30)-exendin-4(31-39)-Ado-Lys-N-ε-(2-(S)-cyano pyrrolidyl)] gave a DPP-IV IC50 of 82 nM.
